Where no end group is shown, it is not given here. The star is where a group is joined. FITC = O=C1OC2(c3ccc(O)cc3Oc3cc(O)ccc32)c2ccc(NC(=S)*)cc21
Molecular target: mouse IMPα2ΔIBB (importin α2 lacking the IMPβ1 binding domain) (mouse, UniProt P52293 70-529)
Experiment: crystal structure; IMPα2ΔIBB crystals (hanging drop, 650 mM sodium citrate, 100 mM HEPES pH 6.5, 10 mM DTT, 23°C) soaked with the peptide; 2.20 Å
Conditions: both partners purified

B1: FITC-ΔNp63α NLSbip peptide (residues 278-302) (peptide)
peptide: {FITC}-DGTKRPFRQNTHGIQMTSIKKRRSP
notes: ΔNp63α (p63), human, residues 278-302, bipartite NLS; numbers count on: the ΔNp63α isoform (Q9H3D4-2); also called p63 NLS; source: synthetic peptide (GenScript)
- binding result: binds
